Tested on: AMPKα
Assay: Time course immunoblot of p-AMPKα (Thr172)/total AMPKα in primary human TM cell lysates
Format: cell-based
Procedure: Primary human trabecular meshwork (TM) cells were isolated, in accordance with the Declaration of Helsinki, and maintained in culture as described previously.^63 Independent primary human TM cell lines were generated from donors ranging in age from 35 to 72 years and no known history of ocular disease. Cell cultures were maintained, unless otherwise stated, in Dulbecco's modified eagle medium (Life Technologies, Grand Island, N.Y.) containing 20% fetal bovine serum, 1% L-glutamine (2 mM), and gentamicin (0.1 mg/ml) at 37° C. in a 10% CO2 atmosphere. Only TM cells from third through fifth passage were used. All experiments were performed using at least three different primary human TM cell lines.
At the conclusion of each experiment for matricellular and ECM protein detection, conditioned media (CM) from TM cell cultures was harvested and centrifuged at 5000 rpm for 10 minutes at 4° C. The supernatant was then concentrated (Amicon Ultra-4 Filter Unit, 10 kDa; Millipore, Milford, Mass.), and protein content quantified using the DC Protein Assay kit adhering to manufacturer's protocols (Bio-Rad, Hercules, Calif.). For AMPK protein detection, cells were lysed for 3 minutes on ice with cold 1×RIPA buffer containing 0.5% Aprotinin, 0.1% EDTA, 1% EGTA, 0.5% PMSF, and 0.01% Leupeptin. Samples were then centrifuged at 14,000 rpm for 15 minutes at 4° C. and protein content quantified. In all experiments, equal amounts of protein were treated with 6× reducing buffer and boiled for 5 minutes. Samples were then electrophoresed in 10% SDS-polyacrylamide gels, alongside a pre-stained protein marker (Cell Signaling Technology Inc., Danvers, Ma). For conditioned media loading control, the resultant gels were stained with 0.1% Coomassie Brilliant Blue G-250 (Bio-Rad, Hercules Calif.) for 3 hours and were destained with fixing/destaining solution until clear bands were visible and contrasted well with the true blue background. Otherwise, proteins were transferred to nitrocellulose membranes (0.45-μm pore size; Invitrogen). […] The membranes were then washed three times with 1×TBS-T, scanned, and integrated band intensities were calculated using an infrared imaging system (Odyssey; Li-Cor, Lincoln, Nebr.). […]

B1: TGF-β2: activated transforming growth factor-β2 (R&D Systems) used to stimulate TM cells (protein, UniProt P61812 303-414, looked up)
Transforming growth factor …: ALDAAYCFRNVQDNCCLRPLYIDFKRDLGWKWIHEPKGYNANFCAGACPYLWSSDTQHSRVLSLYNTINPEASASPCCVSQDLEPLTILYYIGKTPKIEQLSNMIVKSCKCS
In the case of B1, the “phospho-total AMPK ratio difference vs zero time point” value (2.5 ng/mL TGF-β2, at 30 minutes) is reported as “no longer significant” and the “decrease of phospho-total AMPK ratio, normalized to the zero time point” value (2.5 ng/mL TGF-β2, within 15 minutes, human TM cells) is reported as 30%.

— patent US20170020909A1, “METHODS OF TREATING GLAUCOMA USING AMP-ACTIVATED PROTEIN KINASE (AMPK) ACTIVATORS” (Massachusetts Eye and Ear Infirmary, priority 2014, published 2017)
